± gives the standard error. Variants at the floor of the assay were thinned out.
B1: glmS ribozyme (parent)
chain: AUAAAAGCGCCAGAACUACAGAAAUGUAGUUGACGAGGAGGAGGUUUAUCGAAUUUUCGGCGGAUGCCUCCAAA

Experiments:
Conditions in all cases: with glucosamine-6-phosphate
glucosamine-6-phosphate [1] = variants of: B1; assay: self-cleavage kobs at 40 uM GlcN6P; higher = faster cleavage; RNA array
Method in brief: (§1)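 Barcoded ribozyme variants, transcribed in situ by E. coli RNA polymerase on sequenced MiSeq chips, were followed via a hybridised Cy3 probe at 37 °C. Glucosamine-6-phosphate ranged from 40 μM to 10 mM in HEPES/KCl/Mg(OAc)2 buffer. kobs came from decay fits to per-tile medians, and kcat and KM from weighted Michaelis–Menten fits.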

glucosamine-6-phosphate [2] = variants of: B1; assay: self-cleavage kobs at 10000 uM GlcN6P; higher = faster cleavage; RNA array
Method in brief: as §1

glucosamine-6-phosphate [3] = variants of: B1; assay: self-cleavage kobs at 2500 uM GlcN6P; higher = faster cleavage; RNA array
Method in brief: as §1

glucosamine-6-phosphate [4] = variants of: B1; assay: self-cleavage kobs at 640 uM GlcN6P; higher = faster cleavage; RNA array
Method in brief: as §1

glucosamine-6-phosphate [5] = variants of: B1; assay: self-cleavage kobs at 160 uM GlcN6P; higher = faster cleavage; RNA array
Method in brief: as §1

Row | Variant | self-cleavage kobs at 40 uM GlcN6P (glucosamine-6-phosphate [1]) [s⁻¹] | self-cleavage kobs at 10000 uM GlcN6P (glucosamine-6-phosphate [2]) [s⁻¹] | self-cleavage kobs at 2500 uM GlcN6P (glucosamine-6-phosphate [3]) [s⁻¹] | self-cleavage kobs at 640 uM GlcN6P (glucosamine-6-phosphate [4]) [s⁻¹] | self-cleavage kobs at 160 uM GlcN6P (glucosamine-6-phosphate [5]) [s⁻¹]
1 | A36U G44C U47G | < 1e-05 | < 1e-05 |  |  | 
2 | G38U U56G C61A C68G | 0.000276 ± 7.7e-05 | 6.19e-05 ± 2.1e-05 |  |  | 
3 | A36U A64G U69A C71G | 6.16e-05 ± 2.9e-05 |  |  |  | 
4 | G38C G41U G60C | < 1e-05 |  |  |  | 
5 | G40C G41C | < 1e-05 | 6.89e-05 ± 1.3e-05 |  |  | 
6 | A36G G51A A52G | < 1e-05 |  |  |  | 
7 | G35A A39G U57C | < 1e-05 | < 1e-05 | < 1e-05 |  | 
8 | G40A U69A | < 1e-05 | < 1e-05 | < 1e-05 | < 1e-05 | 
9 | G40U G62C | < 1e-05 | < 1e-05 |  | < 1e-05 | < 1e-05
10 | G40C C50G | < 1e-05 | < 1e-05 | < 1e-05 |  | < 1e-05
11 | G35A G59C | < 1e-05 | < 1e-05 | < 1e-05 | < 1e-05 | < 1e-05
12 | G35C U56G | < 1e-05 | < 1e-05 | < 1e-05 | < 1e-05 | < 1e-05
13 | G35C U56C | < 1e-05 | < 1e-05 | < 1e-05 | < 1e-05 | < 1e-05
14 | G35C U46G A48G U65C C68A | < 1e-05 |  |  |  | 
15 | G35C G41U G63U | < 1e-05 |  |  |  | 
16 | A33G C50A A53C G60C | < 1e-05 |  |  |  | 
17 | A33U G44C C68U | < 1e-05 | < 1e-05 |  |  | 
18 | G40A C61A | < 1e-05 |  |  | < 1e-05 | < 1e-05
19 | C34A C70U | < 1e-05 |  |  |  | < 1e-05
20 | G37C U45C | < 1e-05 |  |  |  | < 1e-05
21 | A36G G62C C67U | < 1e-05 | < 1e-05 |  |  | 
22 | A39C G40C U47A U56G | < 1e-05 |  |  |  | 
23 | G37C U46C | < 1e-05 |  |  |  | 
24 | G35U G62C | < 1e-05 | < 1e-05 | < 1e-05 | < 1e-05 | < 1e-05

Row | Variant | self-cleavage kobs at 40 uM GlcN6P (glucosamine-6-phosphate [1]) [s⁻¹] | self-cleavage kobs at 10000 uM GlcN6P (glucosamine-6-phosphate [2]) [s⁻¹] | self-cleavage kobs at 2500 uM GlcN6P (glucosamine-6-phosphate [3]) [s⁻¹] | self-cleavage kobs at 640 uM GlcN6P (glucosamine-6-phosphate [4]) [s⁻¹] | self-cleavage kobs at 160 uM GlcN6P (glucosamine-6-phosphate [5]) [s⁻¹]
25 | A33U G43A | < 1e-05 | < 1e-05 | < 1e-05 | < 1e-05 | < 1e-05
26 | G35A U56C A64U | < 1e-05 | < 1e-05 |  | < 1e-05 | 
27 | A36G A39U A48U C70G | < 1e-05 | < 1e-05 | < 1e-05 | < 1e-05 | < 1e-05
28 | G37U G59A | < 1e-05 |  |  | < 1e-05 | 
29 | A39U G62U | < 1e-05 | < 1e-05 |  |  | 
30 | A39U U54G U55G | 0.000181 ± 6.2e-05 |  | 0.0171 ± 0.0034 | 0.00525 ± 0.0012 | 
31 | A36C G41C U69A | < 1e-05 |  |  |  | 
32 | C34G U47G C68G | 0.000102 ± 2.7e-05 | 7.34e-05 ± 1.5e-05 | 7.01e-05 ± 2.4e-05 | 8.76e-05 ± 2.5e-05 | 0.000631 ± 0.00031
33 | G40C C67A C71A | 3.18e-05 ± 1.4e-05 | 0.000726 ± 0.00011 |  |  | 
34 | A36C G66A | < 1e-05 | < 1e-05 |  |  | 
35 | A39G G40A A53C | 3.7e-05 ± 1.8e-05 | 0.00139 ± 0.00041 |  |  | 
36 | G38U G60A | < 1e-05 |  |  |  | 
37 | G38U C70U C71G | 8.76e-05 ± 2.7e-05 |  |  |  | 
38 | C34G G43C U47A U49C U55G | < 1e-05 | < 1e-05 |  |  | 
39 | C34A A64U | < 1e-05 | < 1e-05 |  | < 1e-05 | < 1e-05
40 | C34A A64C | < 1e-05 | < 1e-05 | < 1e-05 | < 1e-05 | 
41 | G37C G63A | < 1e-05 | < 1e-05 | < 1e-05 | < 1e-05 | 
42 | A39U G59C | < 1e-05 | < 1e-05 | < 1e-05 | < 1e-05 | < 1e-05
43 | A33C C71U | < 1e-05 | 4.08e-05 ± 1e-05 |  |  | < 1e-05
44 | G35A U45A C71A | < 1e-05 |  |  |  | 
45 | A36C G41A | < 1e-05 | < 1e-05 | < 1e-05 | < 1e-05 | < 1e-05
46 | A36C G44U U54G G66A C71A | < 1e-05 | < 1e-05 |  |  | 
47 | A36C G63A | < 1e-05 |  |  | < 1e-05 | 
48 | C34U G37C G51A C68A | < 1e-05 |  |  |  | 

Row | Variant | self-cleavage kobs at 40 uM GlcN6P (glucosamine-6-phosphate [1]) [s⁻¹] | self-cleavage kobs at 10000 uM GlcN6P (glucosamine-6-phosphate [2]) [s⁻¹] | self-cleavage kobs at 2500 uM GlcN6P (glucosamine-6-phosphate [3]) [s⁻¹] | self-cleavage kobs at 640 uM GlcN6P (glucosamine-6-phosphate [4]) [s⁻¹] | self-cleavage kobs at 160 uM GlcN6P (glucosamine-6-phosphate [5]) [s⁻¹]
49 | C34U U57C | < 1e-05 | < 1e-05 | < 1e-05 | < 1e-05 | < 1e-05
50 | G35U A53U C61G C68G | 0.000579 ± 0.00022 | 0.000516 ± 0.0002 |  |  | 
51 | G37A G51A | < 1e-05 | < 1e-05 |  | < 1e-05 | 
52 | C34U G41C G59A A64G | < 1e-05 |  |  | < 1e-05 | < 1e-05
53 | G38C A48U U65A | < 1e-05 |  |  |  | 
54 | A33U A42U U65G | < 1e-05 | < 1e-05 |  |  | 
55 | G38U U45G C67U | < 1e-05 | < 1e-05 |  |  | 
56 | A33G U45A C50G U54G G60A C67A | 0.000354 ± 9.5e-05 | 0.000164 ± 5.5e-05 |  |  | 
57 | G35U A48U | < 1e-05 | < 1e-05 |  | < 1e-05 | < 1e-05
58 | G38A U46G | < 1e-05 | < 1e-05 | < 1e-05 | < 1e-05 | < 1e-05
59 | C34G A64U | < 1e-05 | < 1e-05 | < 1e-05 | < 1e-05 | < 1e-05
60 | G40U A52C | < 1e-05 |  |  |  | < 1e-05
61 | G38U U69G | 0.000121 ± 1.9e-05 | 4.47e-05 ± 9.9e-06 | 7.1e-05 ± 1.6e-05 | 9.8e-05 ± 4.7e-05 | 
62 | G40U C50A G66U | < 1e-05 | < 1e-05 | < 1e-05 | < 1e-05 | 
63 | G32U G41C | < 1e-05 |  |  |  | < 1e-05
64 | A33U A36C A39C G41C G44A U46G G51U C58U A64U | < 1e-05 | < 1e-05 |  |  | 
65 | G37A C68A | < 1e-05 | < 1e-05 | < 1e-05 | < 1e-05 | < 1e-05
66 | G40A G41C A48C C68A C70U | < 1e-05 | < 1e-05 |  |  | 
67 | A36U C58G C70A | 8.19e-05 ± 2.5e-05 | 5.18e-05 ± 1.5e-05 | 4.59e-05 ± 2.3e-05 |  | 0.000111 ± 3.1e-05
68 | C34A U45A | < 1e-05 |  | < 1e-05 | < 1e-05 | < 1e-05
69 | C34G U54A | < 1e-05 | < 1e-05 | < 1e-05 | < 1e-05 | < 1e-05
70 | G35U U45A U57C C67A C68A | < 1e-05 | < 1e-05 |  |  | 
71 | G37A U49A | < 1e-05 |  | < 1e-05 | < 1e-05 | 
72 | C34G G41A G44U A53U | < 1e-05 | < 1e-05 |  |  | 

Row | Variant | self-cleavage kobs at 40 uM GlcN6P (glucosamine-6-phosphate [1]) [s⁻¹] | self-cleavage kobs at 10000 uM GlcN6P (glucosamine-6-phosphate [2]) [s⁻¹] | self-cleavage kobs at 2500 uM GlcN6P (glucosamine-6-phosphate [3]) [s⁻¹] | self-cleavage kobs at 640 uM GlcN6P (glucosamine-6-phosphate [4]) [s⁻¹] | self-cleavage kobs at 160 uM GlcN6P (glucosamine-6-phosphate [5]) [s⁻¹]
73 | C34A A52U | < 1e-05 | < 1e-05 |  | < 1e-05 | 
74 | G35U G41U | < 1e-05 | < 1e-05 | < 1e-05 |  | < 1e-05
75 | G37U G40C G44U | < 1e-05 |  |  |  | 
76 | A33G G40U G59U | < 1e-05 |  | < 1e-05 | < 1e-05 | < 1e-05
77 | G38U U57G C67U C70U | 8e-05 ± 2.6e-05 | 4.29e-05 ± 1.9e-05 | 0.0013 ± 0.00059 | 0.000114 ± 4.7e-05 | 
78 | G35A G44U U49A | < 1e-05 |  |  |  | 
79 | G40A U54A | 0.000696 ± 0.00017 |  | 0.00212 ± 0.00077 | 0.000502 ± 0.00015 | 
80 | A33C A36G C67G | < 1e-05 |  |  |  | 
81 | G40A U47A A53U | 6.84e-05 ± 2.5e-05 |  | 0.000618 ± 0.00018 |  | 
82 | A39U U55G | 0.000507 ± 7.9e-05 | 0.0282 ± 0.0058 | 0.00715 ± 0.0012 | 0.00371 ± 0.00061 | 0.00122 ± 0.0003
83 | A36U G40A | < 1e-05 | < 1e-05 |  |  | 
84 | A36C G37A | < 1e-05 | < 1e-05 |  |  | 
85 | A36G U45C U56A | < 1e-05 |  |  |  | 
86 | A39U C70U | 0.000786 ± 6.4e-05 | 0.0395 ± 0.0076 | 0.0108 ± 0.0033 | 0.00436 ± 0.00059 | 0.00158 ± 0.00038
87 | G38U U46A | < 1e-05 |  | < 1e-05 |  | < 1e-05
88 | G35C C58A G62U | < 1e-05 |  |  |  | 
89 | C34G A64C U65A | < 1e-05 |  |  |  | 
90 | G38C G44U | < 1e-05 | < 1e-05 | < 1e-05 | < 1e-05 | < 1e-05
91 | A33U A48G A52U | < 1e-05 |  |  |  | 
92 | A39U G43A C67G | 0.000153 ± 4.5e-05 | 0.00313 ± 0.00085 | 0.000131 ± 6.2e-05 | 0.000465 ± 0.00019 | 9.45e-05 ± 3.1e-05
93 | G40A U55G C68G | < 1e-05 |  |  |  | 
